Measured values reported in patent US20210079378A1 (Chugai, published 2021).
Positions count from the first letter of the chain named. Values belong to the binder of their own block, whether it stands above or below them.

Columns and labels:
[1] = target: T1, recombinant soluble human IL-6 receptor (SR344) (human, UniProt P08887 20-344); assay: SPR Biacore T100, 37C; antibody captured on protein A/G chip, SR344 analyte; pH 5.8 vs pH 7.4
T1 construct: In the membrane-type IL-6 receptor assays the same protein was biotinylated and immobilised on the sensor chip via streptavidin, as stated under assay; also called soluble IL-6 receptor; membrane-type IL-6 receptor (as biotinylated SR344 immobilised on the chip)
T1 sequence (looked up): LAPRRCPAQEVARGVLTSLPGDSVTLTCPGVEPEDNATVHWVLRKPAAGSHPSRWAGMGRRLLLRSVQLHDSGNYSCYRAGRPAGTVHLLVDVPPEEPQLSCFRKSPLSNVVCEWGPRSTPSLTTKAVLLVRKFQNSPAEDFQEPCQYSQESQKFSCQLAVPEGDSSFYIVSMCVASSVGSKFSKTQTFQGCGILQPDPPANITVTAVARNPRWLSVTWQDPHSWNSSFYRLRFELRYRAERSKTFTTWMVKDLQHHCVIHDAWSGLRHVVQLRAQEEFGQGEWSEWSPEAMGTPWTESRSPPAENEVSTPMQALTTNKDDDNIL
Experimental: Kinetic analyses of antigen-antibody reactions at pH 5.8 and pH 7.4 were carried out using a Biacore™ T100 surface plasmon resonance system (GE Healthcare) on the four antibodies: humanized PM1 antibody (WT) and H3pI/L73, CLH5/L73, and H170/L82 produced in Examples 2 and 4 (buffer: 10 mM MES (pH 7.4 or pH 5.8), 150 mM NaCl, and 0.05% TWEEN® 20 (polyoxyethelene sorbitan monolaurate)). Various antibodies were bound onto a sensor chip immobilized with recomb-protein A/G (Pierce) by amine coupling. SR344 adjusted to concentrations of 9.8 to 400 nM was injected to the chip as an analyte. […] All the measurements were carried out at 37° C. Association rate constants kₐ (1/Ms) and dissociation rate constants kd (1/s) were calculated using Biacore T100™ Evaluation Software (GE Healthcare), and dissociation constants KD (M) were calculated on the basis of those values (Table 5). Moreover, the ratio of the affinities at pH 5.8 and pH 7.4 were calculated for each clone to evaluate pH-dependent binding. All the measurements were carried out at 37° C.

[2] = target: T2, soluble mouse IL-31 receptor (mouse, UniProt Q8K5B1 19-499); assay: SPR Biacore T100, 25C, pH 5.5; antibody captured on protein A/G chip, soluble mouse IL-31 receptor analyte; pH 5.5
T2 construct: Soluble form
T2 sequence (looked up): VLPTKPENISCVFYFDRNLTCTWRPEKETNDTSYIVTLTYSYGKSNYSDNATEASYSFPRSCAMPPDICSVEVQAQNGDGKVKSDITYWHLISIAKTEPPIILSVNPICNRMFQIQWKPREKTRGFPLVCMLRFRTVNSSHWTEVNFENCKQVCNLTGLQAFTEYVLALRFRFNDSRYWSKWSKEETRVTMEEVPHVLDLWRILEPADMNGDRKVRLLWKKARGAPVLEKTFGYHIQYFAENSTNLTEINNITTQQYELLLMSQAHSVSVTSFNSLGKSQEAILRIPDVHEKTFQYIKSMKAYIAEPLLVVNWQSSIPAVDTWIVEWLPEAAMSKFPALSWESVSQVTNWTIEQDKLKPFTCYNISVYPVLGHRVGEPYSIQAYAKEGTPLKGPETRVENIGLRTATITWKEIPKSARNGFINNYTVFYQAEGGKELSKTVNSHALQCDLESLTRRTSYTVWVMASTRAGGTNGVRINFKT
Experimental: Kinetic analysis of antigen-antibody reactions at pH 5.5 and pH 7.4 was carried out using a Biacore T100™ surface plasmon resonance system (GE Healthcare) for the two types of antibodies prepared as mentioned above: Anti-IL31R wild type and Anti-IL31R clone 1 (buffer: DPBS(−) (pH 7.4 or pH 5.5), 150 mM NaCl, 0.01% TWEEN® 20 (polyoxyethelene sorbitan monolaurate), 0.02% NaN₃). The antibodies were bound to a sensor chip on which recomb-protein A/G (Pierce) was immobilized by amine coupling, and then the soluble mouse IL-31 receptor (prepared according to the method described in WO 2007/142325) adjusted to an appropriate concentration was injected therein as an analyte. All the measurements were carried out at 25° C. Association rate constants kₐ (1/Ms) and dissociation rate constants kd (1/s) were calculated using Biacore T100™ Evaluation Software (GE Healthcare), and dissociation constants KD (M) were calculated based on those values (Table 16). Furthermore, the ratio of affinity at pH 5.5 and pH 7.4 was calculated for each clone to evaluate the pH-dependent binding.

- affinity ratio between pH 5.8 and pH 7.4 [1]: 41 fold
B1: H3pI/L73 (antibody, IgG1, V domains shown)
VH: QVQLQESGPGLVKPSETLSLTCAVSGHSISHDHAHSWVRQPPGEGLEWIGYISYSGITNYNPSLKGRVTISRDTSKNQFSLKLSSVTAADTAAYYCARSLARTTAMDYWGEGTLVTVSS
VL: DIQMTQSPSSLSASVGDSVTITCQASQHISSHLNWYQQKPGKAPELLIYYGSHLHSGVPSRFSGSGSGTDFTFTISSLEAEDAATYYCGQGNRLPYTFGQGTKVEIE
notes: Tested as IgG1; also called H3pI/L73-IgG1; H3pl/L73

- affinity ratio between pH 5.8 and pH 7.4 [1]: 394 fold
B2: H170/L82 (antibody, IgG1, V domains shown)
VH: B1 VH with D32H, N59H, S63H, S99V, T103I, Y108H
VL: B1 VL with H28D
notes: Tested as IgG1; also called H170/L82-IgG1

- affinity ratio between pH 5.8 and pH 7.4 [1]: 66 fold
B3: CLH5/L73 (antibody, IgG1, V domains shown)
VH: B1 VH with H27Y, H35W, Y51H, S63H, S99F, T103I, M106H, Y108H
VL: B1 VL
notes: Expressed and purified as IgG

- kon [2]: 51000 M⁻¹ s⁻¹
B4: Anti-IL31R wild type (antibody, human IgG1, lambda, V domains shown)
VH: not shown
VL: LPVLTQPPSVSVAPGQTARITCGGNNIGSKTVYWYQQEPGQAPVLVVYDDTDRPAGIPERFSGANSGNTATLTISRVEAGDEADYYCQVWDSSTDHGVFGGGTKLTVLG
notes: Antibody described in WO 2007/142325; also called anti-IL-31 receptor antibody H chain (WT)/L chain (WT)
